Experimental data as given in US20120093805A1 (Kyowa Kirin, published 2012).
Positions count from the first letter of the chain named.

T1: human sugar chain-deficient CD27 expressed on Lec8 cells (human, UniProt P26842 20-260, O-linked sugar chains to which galactose is not bound, from expression in Lec8 cells)
T1 construct: CD27/Lec8-4 and CD27/Lec8-M19 are two clones that carry the same protein; also called CD27/Lec8-4; CD27/Lec8-M19
T1 sequence: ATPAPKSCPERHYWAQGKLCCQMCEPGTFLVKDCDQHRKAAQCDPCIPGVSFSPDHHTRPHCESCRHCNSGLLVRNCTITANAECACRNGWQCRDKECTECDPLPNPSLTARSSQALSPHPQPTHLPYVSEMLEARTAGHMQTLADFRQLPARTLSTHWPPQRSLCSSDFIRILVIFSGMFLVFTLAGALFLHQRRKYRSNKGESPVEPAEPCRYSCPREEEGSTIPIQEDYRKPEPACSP

B1: anti-sugar chain-deficient CD27 chimeric antibody chimeric KM4031 (antibody, human IgG1, V domains shown)
VH: EVQLVESGGGLVEPGRSMKLSCAASGFTFSDYGMAWVRQAPTKGLEWVATITYDGSIYYRDSVKGRFTISRDNAKSTLYLQMNSLRSEDTATYYCTRDPGLYYFDFWGQGVMVTVSS
VL: DIVMTQSPSSLAVSAGETVTLNCQSSQSLLYSGNQKNYLAWYQQKPGQSPKLLIYWASTRQSGVPDRFIGSGSGTDFTLTISSVQAEDLAIYYCQQYYNTPRTFGGGTKLELK
notes: made in FUT8 knockout CHO cells, no core fucose; also called chimeric KM403I
B2: anti-sugar chain-deficient CD27 chimeric antibody chimeric KM4030 (antibody, human IgG1, V domains shown)
VH: EVQLVESGGGLVQPGRSLKLSCVASGFTFNNYWMTWIRQAPGKGLEWIASITNSGGSTYYPDSVKGRFTISRDNAKGTLYLQMNSLRSEDTATYYCTRDVNTYYGYNALFDYWGQGVMVTVSS
VL: DIQMTQSPSVLSASVGDRVTLNCKASQNINEYLNWYQQKLGEAPKLLIYNTNNLQTGIPSRFSGSGSGTDFTLTISSLQPEDFAAYFCFQHNSWPYTFGAGTKLELK
notes: made in FUT8 knockout CHO cells, no core fucose; also called anti-sugar chain-deficient CD27 chimeric antibody KM4030
B3: anti-sugar chain-deficient CD27 humanized antibody HV5LV0 (antibody, human IgG1, V domains shown)
VH: B2 VH with Q13K, K19R, V23A, T78S, S88A, T93V, Q115L, V117T, M118L
VL: B2 VL with V10S, L21I, N22T, L40P, E42K, I58V, A85T, F87Y, A100Q, L106I
B4: anti-sugar chain-deficient CD27 humanized antibody HV7LV0 (antibody, human IgG1, V domains shown)
VH: B2 VH with Q13K, K19R, V23A, T78S, S88A, Q115L, M118L
VL: B2 VL with V10S, L21I, N22T, L40P, E42K, I58V, A85T, F87Y, A100Q, L106I
B5: anti-sugar chain-deficient CD27 humanized antibody HV0LV0 (antibody, human IgG1, V domains shown)
VH: EVQLVESGGGLVKPGRSLRLSCAASGFTFSNYWMTWIRQAPGKGLEWVSSITNSGGSTYYPDSVKGRFTISRDNAKNSLYLQMNSLRAEDTAVYYCARDVNTYYGYNALFDYWGLGTLVTVSS
VL: B2 VL with V10S, L21I, N22T, L40P, E42K, I58V, A85T, F87Y, A100Q, L106I

What was measured:
[1] = molecular target: T2, Lec8-produced CD27-Fc (human sugar chain-deficient CD27-Fc) (human, O-linked sugar chains to which galactose is not bound (Tn antigen), from production in Lec8 cells); assay: SPR, Biacore T100; Lec8-derived CD27-Fc amine-coupled to CM5 chip, antibody as analyte, single-cycle kinetics, bivalent analyte model
T2 construct: also called Lec8-derived CD27-Fc
Method: In order to kinetically analyze the binding activity of the anti-sugar chain-deficient CD27 chimeric antibodies chimeric KM4026, chimeric KM4028, and chimeric KM4030 to the human sugar chain-deficient CD27-Fc, the binding activity was measured by surface plasmon resonance method (SPR method). All of the following manipulations were carried out using Biacore T100 (manufactured by GE Healthcare Bio-Sciences).
The Lec8-derived CD27-Fc obtained in Example 1(7) was immobilized on a CM5 sensor chip (manufactured by GE Healthcare Bio-Sciences) by amine coupling. Assay samples (chimeric KM4026, chimeric KM4028, chimeric KM4030 and chimeric KM4031), which were serially 3-fold diluted from 9 μg/mL to give 5 different concentrations, were sequentially and continuously added to the CD27-Fc-immobilized chip in order of increasing concentrations, in accordance with an automated program (Single Kinetix), followed by measurement.
Using the analysis software, Biacore T100 Evaluation software (manufactured by Biacore) installed on the apparatus, the analysis was carried out using Bivalent Analyte Model to calculate thereby an association rate constant ka and a dissociation rate constant kd of each antibody for the human sugar chain-deficient CD27-Fc.

[2] = molecular target: T2, Lec8-produced CD27-Fc (human sugar …); assay: SPR, BIACORE T100, as in Example 7(1): Lec8-derived CD27-Fc on CM5 chip, antibody as analyte, bivalent analyte model
Method: In order to analyze binding activity of anti-sugar chain-deficient CD27 humanized antibody to human sugar chain-deficient CD27 reaction kinetically, it was measured in the same manner as in Example 7(1) using BIACORE T100 (manufactured by BIACORE).

[3] = molecular target: T1, human sugar chain-deficient CD27 …; assay: flow cytometry (FCM) on CD27/Lec8-4 cells [A) (a]
Method: The CD27/DG44-4, CD27/Lec8-4 and Lec8 cells constructed in the same manner as in Example 2 were used as assay cells. The CD27/DG44-4 subcultured in an HT-medium supplemented with 500 μg/mL of G418, and the CD27/Lec8-4 subcultured in an HT-medium supplemented with 50 nmol/L of MTX and 500 μg/mL of G418 were peeled off using a 0.02% EDTA solution, and then washed with PBS.
After the reaction was complete, centrifugation was carried out twice with PBS, and ALEXA Fluoro 488-labeled anti-human immunoglobulin G(H+L), ALEXA Fluoro 488-labeled anti-mouse immunoglobulin G(H+L) or ALEXA Fluoro 488-labeled anti-human immunoglobulin M(μ) as a secondary antibody was added at a concentration of 50 μL/well, followed by reaction at ice temperature under shading for 30 minutes.
Again, centrifugation was repeated twice using PBS, and the cells were washed and suspended in 500 μL of 1% BSA-PBS. The fluorescence of 510 to 530 nm excited with a 488 nm argon laser was measured by a flow cytometer (manufactured by Beckman Coulter, Cytomics FC500 MPL).

[4] = molecular target: T1, human sugar chain-deficient CD27 …; assay: flow cytometry (FCM) on CD27/Lec8-M19 cells [A]
Method: Reaction specificity of the anti-sugar chain-deficient CD27 humanized antibody was measured in the same manner as in Example 7(2). Regarding the cell lines, the CD27/DG44-4 cell and CD27/Lec8-M19 cell having almost the same antigen expression quantity, prepared by the same method of Example 2, were used as assaying cells.

[5] = molecular target: T3, sugar chain-deficient cynomolgus CD27 (C-terminal His tag) expressed on Lec8 cells (cynomolgus); assay: flow cytometry (FCM) on cynomolgus CD27/Lec8 cells (Example 11(5)) [A]
T3 construct: whole, on cells; also called cynomolgus CD27/Lec8 cell; sugar chain-deficient cynomolgus CD27 cell
Method: Binding activity of the anti-sugar chain-deficient CD27 humanized antibodies HV0LV0, HV5LV0 and HV7LV0 for cynomolgus CD27 expression cells was measured by a fluorescent cell staining method (cytometer analysis) in the same manner as in Example 9(1). The cynomolgus CD27/DG44 cell and cynomolgus CD27/Lec8 cell prepared in Example 8 were used as the cynomolgus CD27 expression cells.

| Binder | Kd [1] | koff [1] | kon [1] | EC50 (read off the curve) [5] | further results |
| --- | --- | --- | --- | --- | --- |
| B1 | 0.51 nM | 0.0002 s⁻¹ | 400000 M⁻¹ s⁻¹ | – | – |
| B2 | 1.07 nM | 0.00034 s⁻¹ | 290000 M⁻¹ s⁻¹ | – | Kd [2]: 1.1 nM; koff [2]: 0.00082 s⁻¹; kon [2]: 740000 M⁻¹ s⁻¹; EC50 (read off the curve) [3]: ~0.1 µg/mL; EC50 (read off the curve) [4]: ~0.2 µg/mL |
| B3 | – | – | – | ~0.2 µg/mL | – |
| B4 | – | – | – | ~0.2 µg/mL | – |
| B5 | – | – | – | ~0.2 µg/mL | – |
